Reference: US20030186419A1 (published 2003)

Biological target: T1, MASP-1 (MBL-associated serine protease 1) (human, UniProt P48740 20-699)
T1 sequence (looked up): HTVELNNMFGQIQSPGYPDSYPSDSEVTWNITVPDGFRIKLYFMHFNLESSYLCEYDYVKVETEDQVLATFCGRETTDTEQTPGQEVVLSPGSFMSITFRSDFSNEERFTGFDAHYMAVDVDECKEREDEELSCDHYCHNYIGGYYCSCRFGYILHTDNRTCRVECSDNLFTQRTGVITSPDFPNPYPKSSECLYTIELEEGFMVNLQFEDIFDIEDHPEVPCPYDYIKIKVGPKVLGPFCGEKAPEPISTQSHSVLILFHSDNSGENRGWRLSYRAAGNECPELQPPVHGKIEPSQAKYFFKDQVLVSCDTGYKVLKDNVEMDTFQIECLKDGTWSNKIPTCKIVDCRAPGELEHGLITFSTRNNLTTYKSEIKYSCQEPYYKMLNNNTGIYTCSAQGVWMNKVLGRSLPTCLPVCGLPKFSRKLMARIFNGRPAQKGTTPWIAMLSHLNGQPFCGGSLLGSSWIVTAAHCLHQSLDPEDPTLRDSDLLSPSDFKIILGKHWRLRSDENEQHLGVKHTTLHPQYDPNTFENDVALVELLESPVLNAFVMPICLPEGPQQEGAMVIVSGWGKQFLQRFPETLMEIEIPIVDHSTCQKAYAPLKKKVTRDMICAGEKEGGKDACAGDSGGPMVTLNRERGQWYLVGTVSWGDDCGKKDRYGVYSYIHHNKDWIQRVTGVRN
Assay: co-capture on anti-MASP-1-coated wells, eluate blotted with anti-pMASP-3

binding result: no binding
B1: mannan binding lectin-associated serine protease 3 (MASP-3), natural protein from human plasma/serum (enzyme)
chain: HTVELNNMFGQIQSPGYPDSYPSDSEVTWNITVPDGFRIKLYFMHFNLESSYLCEYDYVKVETEDQVLATFCGRETTDTEQTPGQEVVLSPGSFMSITFRSDFSNEERFTGFDAHYMAVDVDECKEREDEELSCDHYCHNYIGGYYCSCRFGYILHTDNRTCRVECSDNLFTQRTGVITSPDFPNPYPKSSECLYTIELEEGFMVNLQFEDIFDIQDHPEVPCPYDYIKIKVGPKVLGPFCGEKAPEPISTQSHSVLILFHSDNSAENRGWRLSYRAAGNECPELQPPVHGKIEPSQAKYFFKDQVLVSCDTGYKVLKDNVEMDTFQIECLKDGTWSNKIPTCKIVDCRAPGELEHGLITFSTRNNLTTYKSEIKYSCQEPYYKMLNNNTGIYTCSAQGVWMNKVLGRSLPTCLPECGQPSRSLPSLVKRIIGGRNAEPGLFPWQALIVVEDTSRVPNDKWFGSGALLSASWILTAAHVLRSQRRDTTVIPVSKEHVTVYLGLHDVRDKSGAVNSSAARVVLHPDFNIQNYNHDIALVQLQEPVPLGPHVMPVCLPRLEPEGPAPHMLGLVAGWGISNPNVTVDEIISSGTRTLSDVLQYVKLPVVPHAECKTSYESRSGNYSVTENMFCAGYYEGGKDTCLGDSGGAFVIFDDLSQRWVVQGLVSWGGPEECGSKQVYGVYTKVSNYVDWVWEQMGLPQSVVEPQVER
notes: Natural protein in lectin preparations, MBL complexes or serum; On reducing blots only the B chain is seen; also called MBL-associated serine protease-3; lectin associated serine protease 110
